Laboratory results as given in patent US20070071746A1 (AstraZeneca / MedImmune, published 2007).

What was measured:
mouse YKL-40/BRP-39 = target: T1, mouse YKL-40/BRP-39 (mouse, UniProt Q61362 30-389); assay: ELISA
T1 construct: Recombinant from HEK293; non-tagged versions also made; also called mYKL40/BRP39; mYKL-40

human YKL-40 = target: T2, human YKL-40 (human, UniProt P36222 22-383); assay: ELISA
T2 construct: Recombinant from HEK293; non-tagged versions also made; also called hYKL-40; chitinase 3-like 1

mouse AMCase E140A = target: T3, mouse AMCase E140A (mouse, UniProt Q91XA9 22-473); assay: ELISA; + = 0.20 to 0.99 OD at 62.5 ng/ml
T3 construct: Full length point mutant without chitinase activity; also called mAMCase E140A

Ym2 [1] = target: T4, Ym2 (mouse, UniProt Q91Z98 22-402); assay: ELISA; + = 0.20 to 0.99 OD at 62.5 ng/ml
T4 construct: Recombinant from HEK293; non-tagged versions also made; also called chitinase 3-like 4

human YKL-39 [2] = target: T5, human YKL-39 (human, UniProt Q15782 27-390); assay: ELISA; + = 0.20 to 0.99 OD at 62.5 ng/ml
T5 construct: Recombinant from HEK293; non-tagged versions also made; also called hYKL-39; chondrocyte protein 39
T5 sequence: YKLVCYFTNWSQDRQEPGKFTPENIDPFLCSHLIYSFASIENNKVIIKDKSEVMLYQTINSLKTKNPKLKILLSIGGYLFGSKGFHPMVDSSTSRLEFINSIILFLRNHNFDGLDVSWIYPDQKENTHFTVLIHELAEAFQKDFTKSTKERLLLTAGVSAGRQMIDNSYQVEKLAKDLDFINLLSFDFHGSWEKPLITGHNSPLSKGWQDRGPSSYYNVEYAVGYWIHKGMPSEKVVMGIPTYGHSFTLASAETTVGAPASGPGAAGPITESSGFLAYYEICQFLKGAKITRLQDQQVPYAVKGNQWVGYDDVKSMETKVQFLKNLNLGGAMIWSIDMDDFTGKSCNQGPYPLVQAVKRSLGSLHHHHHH

[3] = target: T6, mouse acidic mammalian chitinase (AMCase), full length (mouse, UniProt Q91XA9 22-473); assay: ELISA; ++ = 1.00 to 2.49 OD at 62.5 ng/ml
T6 construct: Recombinant, secreted from HEK293 cells and purified by its His tag; Biotin labeled in the galectin ELISA; also called mAMCase; mouse AMCase

[4] = target: T7, mouse AMCase truncated form lacking the C-terminal chitin binding domain (mouse, UniProt Q91XA9 22-398, limits assumed); assay: ELISA; ++ = 1.00 to 2.49 OD at 62.5 ng/ml
T7 construct: also called mAMCase TR

[5] = target: T7, mouse AMCase truncated form lacking the …; assay: ELISA
mouse chitotriosidase = target: T8, mouse chitotriosidase (mouse, UniProt Q9D7Q1 22-464); assay: ELISA
T8 construct: Recombinant from HEK293; non-tagged versions also made; also called mChT; mouse ChT

Ym1 = target: T9, Ym1 (mouse, UniProt O35744 22-398); assay: ELISA
T9 construct: Recombinant from HEK293; non-tagged versions also made; also called chitinase 3-like 3; ECF-L

Ym2 [6] = target: T4, Ym2; assay: ELISA
[7] = target: T10, human AMCase C-terminally truncated, lacking the chitin binding domain (human, UniProt Q9BZP6 22-398, limits assumed); assay: ELISA
T10 construct: Biotin labeled in the galectin ELISA; also called hAMCase TR

human chitotriosidase = target: T11, human chitotriosidase (human, UniProt Q13231 22-466); assay: ELISA
T11 construct: Recombinant from HEK293; non-tagged versions also made; also called hChT; ChT

human YKL-39 [8] = target: T5, human YKL-39; assay: ELISA
[9] = target: T6, mouse acidic mammalian chitinase …; assay: ELISA; + = 0.20 to 0.99 OD at 62.5 ng/ml
mouse AMCase D136A = target: T12, mouse AMCase D136A (mouse, UniProt Q91XA9 22-473); assay: ELISA; ++ = 1.00 to 2.49 OD at 62.5 ng/ml
T12 construct: Full length point mutant without chitinase activity; also called mAMCase D136A
T12 sequence (Q91XA9 22-473 D136A limits assumed): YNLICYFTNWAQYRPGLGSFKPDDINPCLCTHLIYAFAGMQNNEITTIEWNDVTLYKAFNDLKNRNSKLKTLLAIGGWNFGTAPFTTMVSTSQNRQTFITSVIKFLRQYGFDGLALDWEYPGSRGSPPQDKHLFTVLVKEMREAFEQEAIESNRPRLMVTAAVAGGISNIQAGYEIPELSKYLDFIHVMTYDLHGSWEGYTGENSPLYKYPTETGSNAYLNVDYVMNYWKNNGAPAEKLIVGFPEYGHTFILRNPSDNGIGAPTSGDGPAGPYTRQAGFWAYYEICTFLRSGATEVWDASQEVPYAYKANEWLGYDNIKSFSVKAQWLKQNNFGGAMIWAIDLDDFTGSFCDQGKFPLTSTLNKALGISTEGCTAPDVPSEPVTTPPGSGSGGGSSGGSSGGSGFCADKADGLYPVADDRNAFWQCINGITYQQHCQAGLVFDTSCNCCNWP

T7 sequence (Q91XA9 22-398 limits assumed): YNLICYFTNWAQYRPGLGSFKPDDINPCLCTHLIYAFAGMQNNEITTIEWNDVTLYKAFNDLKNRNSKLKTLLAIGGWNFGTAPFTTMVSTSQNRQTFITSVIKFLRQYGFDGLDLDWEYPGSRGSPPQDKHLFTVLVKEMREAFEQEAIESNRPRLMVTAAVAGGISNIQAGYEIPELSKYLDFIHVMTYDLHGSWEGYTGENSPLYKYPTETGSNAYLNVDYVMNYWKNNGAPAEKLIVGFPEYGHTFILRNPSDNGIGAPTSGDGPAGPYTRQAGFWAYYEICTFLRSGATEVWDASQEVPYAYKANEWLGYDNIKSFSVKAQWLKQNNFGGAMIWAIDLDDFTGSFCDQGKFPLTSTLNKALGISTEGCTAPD
T4 sequence (Q91Z98 other isoform, or with tags, fused parts or gaps limits assumed): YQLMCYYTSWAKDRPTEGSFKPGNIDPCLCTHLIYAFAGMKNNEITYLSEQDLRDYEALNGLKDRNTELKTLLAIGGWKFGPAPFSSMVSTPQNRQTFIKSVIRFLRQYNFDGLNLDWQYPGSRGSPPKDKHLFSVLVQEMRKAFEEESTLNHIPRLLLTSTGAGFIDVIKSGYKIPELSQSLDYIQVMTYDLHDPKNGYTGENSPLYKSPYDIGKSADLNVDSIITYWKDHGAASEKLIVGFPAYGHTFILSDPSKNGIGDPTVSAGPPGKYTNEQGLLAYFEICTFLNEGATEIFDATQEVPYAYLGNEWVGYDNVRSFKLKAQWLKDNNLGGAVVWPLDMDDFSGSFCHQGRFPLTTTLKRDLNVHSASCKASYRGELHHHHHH
T1 sequence (Q61362 other isoform, or with tags, fused parts or gaps limits assumed): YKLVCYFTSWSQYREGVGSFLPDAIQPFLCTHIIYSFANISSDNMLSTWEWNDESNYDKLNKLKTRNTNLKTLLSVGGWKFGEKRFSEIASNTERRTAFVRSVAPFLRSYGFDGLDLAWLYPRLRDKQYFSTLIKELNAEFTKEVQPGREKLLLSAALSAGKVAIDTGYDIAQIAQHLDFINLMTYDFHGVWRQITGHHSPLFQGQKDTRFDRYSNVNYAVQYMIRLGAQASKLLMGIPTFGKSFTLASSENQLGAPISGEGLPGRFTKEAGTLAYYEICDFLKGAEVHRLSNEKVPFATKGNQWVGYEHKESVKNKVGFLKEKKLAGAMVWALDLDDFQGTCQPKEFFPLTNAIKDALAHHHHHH
T3 sequence (Q91XA9 22-473 E140A limits assumed): as the sequence (Q91XA9 22-473 D136A limits assumed) above, with A115D, E119A counted along it
T2 sequence (P36222 other isoform, or with tags, fused parts or gaps limits assumed): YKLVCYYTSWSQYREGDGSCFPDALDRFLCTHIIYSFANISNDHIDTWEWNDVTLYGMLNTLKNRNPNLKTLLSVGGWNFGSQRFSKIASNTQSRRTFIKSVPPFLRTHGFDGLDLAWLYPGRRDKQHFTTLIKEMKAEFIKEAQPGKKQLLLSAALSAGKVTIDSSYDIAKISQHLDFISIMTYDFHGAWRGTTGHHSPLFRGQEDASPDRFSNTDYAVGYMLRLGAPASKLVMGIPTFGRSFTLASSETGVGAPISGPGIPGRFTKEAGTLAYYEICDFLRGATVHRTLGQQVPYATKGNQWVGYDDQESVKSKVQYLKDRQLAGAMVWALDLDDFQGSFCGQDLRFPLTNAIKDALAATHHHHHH
T6 sequence (Q91XA9 other isoform, or with tags, fused parts or gaps limits assumed): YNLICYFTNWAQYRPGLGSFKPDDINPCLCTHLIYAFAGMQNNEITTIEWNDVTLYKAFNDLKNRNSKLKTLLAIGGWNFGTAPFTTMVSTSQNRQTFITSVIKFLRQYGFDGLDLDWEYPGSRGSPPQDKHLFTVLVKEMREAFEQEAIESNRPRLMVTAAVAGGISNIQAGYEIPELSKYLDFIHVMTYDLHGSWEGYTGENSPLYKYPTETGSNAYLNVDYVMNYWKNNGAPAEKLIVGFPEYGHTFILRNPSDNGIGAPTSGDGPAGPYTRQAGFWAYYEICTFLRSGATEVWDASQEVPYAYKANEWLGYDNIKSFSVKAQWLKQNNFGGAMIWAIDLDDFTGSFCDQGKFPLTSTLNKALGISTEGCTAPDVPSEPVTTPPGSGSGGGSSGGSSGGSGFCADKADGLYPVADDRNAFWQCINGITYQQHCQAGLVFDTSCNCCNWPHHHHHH
T8 sequence (Q9D7Q1 other isoform, or with tags, fused parts or gaps limits assumed): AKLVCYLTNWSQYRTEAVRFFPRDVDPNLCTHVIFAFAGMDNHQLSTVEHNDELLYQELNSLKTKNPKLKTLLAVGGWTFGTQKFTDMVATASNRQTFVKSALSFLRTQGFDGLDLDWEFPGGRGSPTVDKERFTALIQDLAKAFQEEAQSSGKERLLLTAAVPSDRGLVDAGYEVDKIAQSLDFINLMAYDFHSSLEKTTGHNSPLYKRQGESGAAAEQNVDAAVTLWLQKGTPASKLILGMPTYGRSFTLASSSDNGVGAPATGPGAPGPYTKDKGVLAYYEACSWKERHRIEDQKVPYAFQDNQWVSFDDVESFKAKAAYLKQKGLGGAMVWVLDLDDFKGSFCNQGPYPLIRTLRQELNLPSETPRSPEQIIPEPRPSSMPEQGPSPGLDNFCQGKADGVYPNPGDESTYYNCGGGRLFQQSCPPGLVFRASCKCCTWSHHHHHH
T10 sequence (Q9BZP6 22-398 limits assumed): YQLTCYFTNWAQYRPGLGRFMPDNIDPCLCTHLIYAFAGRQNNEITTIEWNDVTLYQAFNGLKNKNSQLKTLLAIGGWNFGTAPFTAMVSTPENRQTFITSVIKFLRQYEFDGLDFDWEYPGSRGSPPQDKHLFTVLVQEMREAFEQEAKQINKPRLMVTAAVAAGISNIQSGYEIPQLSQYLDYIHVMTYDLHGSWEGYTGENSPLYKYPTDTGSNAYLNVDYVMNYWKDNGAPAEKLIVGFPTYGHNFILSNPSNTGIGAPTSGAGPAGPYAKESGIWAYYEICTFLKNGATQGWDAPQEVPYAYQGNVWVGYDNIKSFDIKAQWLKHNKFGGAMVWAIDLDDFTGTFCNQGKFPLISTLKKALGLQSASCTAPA
T11 sequence (Q13231 other isoform, or with tags, fused parts or gaps limits assumed): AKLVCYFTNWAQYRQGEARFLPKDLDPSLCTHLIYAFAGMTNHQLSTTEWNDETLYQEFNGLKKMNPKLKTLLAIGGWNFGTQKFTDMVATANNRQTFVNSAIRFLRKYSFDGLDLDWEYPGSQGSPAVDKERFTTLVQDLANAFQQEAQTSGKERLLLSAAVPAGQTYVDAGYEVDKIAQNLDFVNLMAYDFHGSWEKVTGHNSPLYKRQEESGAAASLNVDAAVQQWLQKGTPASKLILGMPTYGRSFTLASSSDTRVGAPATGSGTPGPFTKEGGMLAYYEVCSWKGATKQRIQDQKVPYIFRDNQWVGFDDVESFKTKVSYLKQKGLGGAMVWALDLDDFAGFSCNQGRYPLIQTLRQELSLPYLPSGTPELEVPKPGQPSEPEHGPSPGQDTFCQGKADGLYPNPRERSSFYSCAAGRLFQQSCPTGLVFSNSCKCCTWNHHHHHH
T9 sequence (O35744 other isoform, or with tags, fused parts or gaps limits assumed): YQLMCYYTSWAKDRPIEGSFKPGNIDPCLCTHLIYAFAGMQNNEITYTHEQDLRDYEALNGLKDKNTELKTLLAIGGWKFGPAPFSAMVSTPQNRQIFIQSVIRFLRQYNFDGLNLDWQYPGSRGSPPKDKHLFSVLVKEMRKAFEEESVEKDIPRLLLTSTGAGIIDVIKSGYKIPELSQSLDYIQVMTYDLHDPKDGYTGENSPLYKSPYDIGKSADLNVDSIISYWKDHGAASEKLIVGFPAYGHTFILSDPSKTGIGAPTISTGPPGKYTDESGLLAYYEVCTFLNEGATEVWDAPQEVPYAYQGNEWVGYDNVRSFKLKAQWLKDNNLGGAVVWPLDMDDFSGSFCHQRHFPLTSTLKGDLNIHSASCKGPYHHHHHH

B1: Z1 (antibody, V domains shown)
VH: EVQLLESGGGLVQPGGSLRLSCAASGFTFSFYRMAWVRQAPGKGLEWVSRISSSGGPTMYADSVKGRFTISRDNSKNTLYLQMNSLRAEDTAVYYCTTEKQYAGVTFESWGQGTLVTVSS
VL: DIQMTQSPATLSLSPGERATLSCRASQSVSSYLAWYQQKPGQAPRLLIYDASNRATGIPARFSGSGSGTDFTLTISSLEPEDFAVYYCQQRSNSPTFGGGTKVEIK
notes: Fully human anti-AMCase antibody from phage display, converted to full length IgG
binding result (mouse YKL-40/BRP-39): no binding
binding result (human YKL-40): no binding
ELISA OD at 62.5 ng/ml antibody (mouse AMCase E140A): 0.2 to 0.99 od
binding result (Ym2 [1]): binds
ELISA OD at 62.5 ng/ml antibody (human YKL-39 [2]): 0.2 to 0.99 od
ELISA OD at 62.5 ng/ml antibody [3]: 1 to 2.49 od
ELISA OD at 62.5 ng/ml antibody [4]: 1 to 2.49 od

B2: Z8 (antibody, V domains shown)
VH: EVQLLESGGGLVQPGGSLRLSCAASGFTFSPYLMWWVRQAPGKGLEWVSYISSSGGYTSYADSVKGRFTISRDNSKNTLYLQMNSLRAEDTAMYYCARMYYYDSSGYPSFDYWGQGTLVTVSS
VL: QSALTQPPSASGTPGQRVTISCSGSGSNIGSNTVNWYQQLPGTAPKLLIYSSNQRPSGVSDRFSGSKSVASASLAINGLQSEDEADYYCAGWDDSLNGPVFGGGTKLTVL
notes: as for B1
binding result [5]: no binding
binding result (mouse chitotriosidase): no binding
binding result (Ym1): no binding
binding result (Ym2 [6]): no binding
binding result (mouse YKL-40/BRP-39): no binding
binding result [7]: no binding
binding result (human chitotriosidase): no binding
binding result (human YKL-39 [8]): no binding
binding result (human YKL-40): no binding
ELISA OD at 62.5 ng/ml antibody [9]: 0.2 to 0.99 od
ELISA OD at 62.5 ng/ml antibody (mouse AMCase E140A): 0.2 to 0.99 od
ELISA OD at 62.5 ng/ml antibody (mouse AMCase D136A): 1 to 2.49 od
